Assay results: the supplement of paper PMC9112550, “Optimization of the antimicrobial peptide Bac7 by deep mutational scanning” (BMC Biology, 2022)

System: Escherichia coli TOP10
Experiment: shrunken log2 fold change of peptide-encoding DNA abundance (4.5 h post-induction vs induction); higher = less antimicrobial activity (less host growth inhibition)
Details: time post-induction: 4.5 h; library: site-saturation at positions 5, 18, 19, 20
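Note: peptides expressed intracellularly from a pBAD plasmid library in pooled LB shake-flask culture, induced with 0.3% L-arabinose, DNA abundance read by NGS, three biological replicates, DESeq2 with apeglm shrinkage.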

Row | Sequence | shrunken log2 fold change
1 | RRIRCRPPRLPRPRPRPHVRPRP | -0.4
2 | RRIRCRPPRLPRPRPRPHWFPRP | -0.0681
3 | RRIRCRPPRLPRPRPRPHYMPRP | -0.308
4 | RRIRCRPPRLPRPRPRPIAGPRP | 0.195
5 | RRIRCRPPRLPRPRPRPIDHPRP | -1.01
6 | RRIRCRPPRLPRPRPRPIDYPRP | -0.651
7 | RRIRCRPPRLPRPRPRPIFQPRP | -0.0452
8 | RRIRCRPPRLPRPRPRPIHGPRP | -0.33
9 | RRIRCRPPRLPRPRPRPIHPPRP | 0.00281
10 | RRIRCRPPRLPRPRPRPIICPRP | -0.442
11 | RRIRCRPPRLPRPRPRPIIDPRP | -0.323
12 | RRIRCRPPRLPRPRPRPIIKPRP | -1.01
13 | RRIRCRPPRLPRPRPRPIKYPRP | -0.608
14 | RRIRCRPPRLPRPRPRPILLPRP | -1.03
15 | RRIRCRPPRLPRPRPRPILPPRP | -0.287
16 | RRIRCRPPRLPRPRPRPIMVPRP | -0.115
17 | RRIRCRPPRLPRPRPRPINHPRP | -0.607
18 | RRIRCRPPRLPRPRPRPINKPRP | -1.19
19 | RRIRCRPPRLPRPRPRPINNPRP | -0.633
20 | RRIRCRPPRLPRPRPRPIPRPRP | 0.73
21 | RRIRCRPPRLPRPRPRPIRFPRP | -0.27
22 | RRIRCRPPRLPRPRPRPIRPPRP | -0.0704
23 | RRIRCRPPRLPRPRPRPIVNPRP | -0.239
24 | RRIRCRPPRLPRPRPRPIWDPRP | 0.166
25 | RRIRCRPPRLPRPRPRPIWHPRP | -0.239

Row | Sequence | shrunken log2 fold change
26 | RRIRCRPPRLPRPRPRPIWVPRP | -0.0515
27 | RRIRCRPPRLPRPRPRPIYKPRP | -0.559
28 | RRIRCRPPRLPRPRPRPIYLPRP | -0.457
29 | RRIRCRPPRLPRPRPRPKCEPRP | 0.11
30 | RRIRCRPPRLPRPRPRPKDKPRP | 0.401
31 | RRIRCRPPRLPRPRPRPKEGPRP | 0.201
32 | RRIRCRPPRLPRPRPRPKFMPRP | -0.527
33 | RRIRCRPPRLPRPRPRPKLKPRP | -0.16
34 | RRIRCRPPRLPRPRPRPKMYPRP | -0.342
35 | RRIRCRPPRLPRPRPRPKPGPRP | 0.503
36 | RRIRCRPPRLPRPRPRPKPHPRP | 0.398
37 | RRIRCRPPRLPRPRPRPKQHPRP | 0.189
38 | RRIRCRPPRLPRPRPRPKRSPRP | 0.235
39 | RRIRCRPPRLPRPRPRPKTMPRP | -0.172
40 | RRIRCRPPRLPRPRPRPKTSPRP | -0.179
41 | RRIRCRPPRLPRPRPRPKVAPRP | -0.118
42 | RRIRCRPPRLPRPRPRPKWPPRP | -0.0352
43 | RRIRCRPPRLPRPRPRPKWRPRP | 0.422
44 | RRIRCRPPRLPRPRPRPKYCPRP | -0.264
45 | RRIRCRPPRLPRPRPRPKYLPRP | -0.34
46 | RRIRCRPPRLPRPRPRPKYSPRP | -0.898
47 | RRIRCRPPRLPRPRPRPLAEPRP | 0.242
48 | RRIRCRPPRLPRPRPRPLDAPRP | 0.123
49 | RRIRCRPPRLPRPRPRPLEIPRP | -0.164
50 | RRIRCRPPRLPRPRPRPLEYPRP | -0.0414

Row | Sequence | shrunken log2 fold change
51 | RRIRCRPPRLPRPRPRPLHCPRP | -0.1
52 | RRIRCRPPRLPRPRPRPLHWPRP | 0.467
53 | RRIRCRPPRLPRPRPRPLKGPRP | -0.204
54 | RRIRCRPPRLPRPRPRPLMSPRP | -0.289
55 | RRIRCRPPRLPRPRPRPLQQPRP | 0.178
56 | RRIRCRPPRLPRPRPRPLRRPRP | 0.519
57 | RRIRCRPPRLPRPRPRPLSEPRP | -0.219
58 | RRIRCRPPRLPRPRPRPLTGPRP | -0.994
59 | RRIRCRPPRLPRPRPRPLVEPRP | 0.102
60 | RRIRCRPPRLPRPRPRPLVWPRP | 0.207
61 | RRIRCRPPRLPRPRPRPLWHPRP | -0.091
62 | RRIRCRPPRLPRPRPRPLWLPRP | -0.0572
63 | RRIRCRPPRLPRPRPRPMAVPRP | 0.0112
64 | RRIRCRPPRLPRPRPRPMDPPRP | -0.543
65 | RRIRCRPPRLPRPRPRPMEGPRP | -0.00776
66 | RRIRCRPPRLPRPRPRPMFHPRP | -0.723
67 | RRIRCRPPRLPRPRPRPMFSPRP | -0.48
68 | RRIRCRPPRLPRPRPRPMHNPRP | -0.293
69 | RRIRCRPPRLPRPRPRPMIHPRP | -0.466
70 | RRIRCRPPRLPRPRPRPMIKPRP | -0.497
71 | RRIRCRPPRLPRPRPRPMLAPRP | 0.379
72 | RRIRCRPPRLPRPRPRPMLHPRP | -0.378
73 | RRIRCRPPRLPRPRPRPMLLPRP | 0.00507
74 | RRIRCRPPRLPRPRPRPMLQPRP | 0.0596
75 | RRIRCRPPRLPRPRPRPMMQPRP | 0.0143

Row | Sequence | shrunken log2 fold change
76 | RRIRCRPPRLPRPRPRPMMYPRP | -0.12
77 | RRIRCRPPRLPRPRPRPMNAPRP | -0.422
78 | RRIRCRPPRLPRPRPRPMNRPRP | -0.35
79 | RRIRCRPPRLPRPRPRPMQSPRP | -0.0765
80 | RRIRCRPPRLPRPRPRPMREPRP | 0.907
81 | RRIRCRPPRLPRPRPRPMRLPRP | 0.0914
82 | RRIRCRPPRLPRPRPRPMSYPRP | -0.23
83 | RRIRCRPPRLPRPRPRPMVPPRP | -0.354
84 | RRIRCRPPRLPRPRPRPMWDPRP | -0.317
85 | RRIRCRPPRLPRPRPRPMWTPRP | -0.0185
86 | RRIRCRPPRLPRPRPRPMYEPRP | -0.264
87 | RRIRCRPPRLPRPRPRPNAQPRP | 0.164
88 | RRIRCRPPRLPRPRPRPNCAPRP | 0.00777
89 | RRIRCRPPRLPRPRPRPNCLPRP | -0.19
90 | RRIRCRPPRLPRPRPRPNCVPRP | -0.00701
91 | RRIRCRPPRLPRPRPRPNEFPRP | 0.159
92 | RRIRCRPPRLPRPRPRPNFQPRP | -0.438
93 | RRIRCRPPRLPRPRPRPNGMPRP | -0.398
94 | RRIRCRPPRLPRPRPRPNGRPRP | 0.0604
95 | RRIRCRPPRLPRPRPRPNHDPRP | -0.589
96 | RRIRCRPPRLPRPRPRPNHEPRP | -0.15
97 | RRIRCRPPRLPRPRPRPNIGPRP | -0.138
98 | RRIRCRPPRLPRPRPRPNKGPRP | -0.302
99 | RRIRCRPPRLPRPRPRPNKYPRP | -0.324
100 | RRIRCRPPRLPRPRPRPNLDPRP | -0.478

Row | Sequence | shrunken log2 fold change
101 | RRIRCRPPRLPRPRPRPNLFPRP | -0.932
102 | RRIRCRPPRLPRPRPRPNLMPRP | -0.323
103 | RRIRCRPPRLPRPRPRPNMEPRP | -0.237
104 | RRIRCRPPRLPRPRPRPNMIPRP | -0.829
105 | RRIRCRPPRLPRPRPRPNNSPRP | -0.743
106 | RRIRCRPPRLPRPRPRPNPEPRP | 0.448
107 | RRIRCRPPRLPRPRPRPNQAPRP | -0.146
108 | RRIRCRPPRLPRPRPRPNRDPRP | -0.167
109 | RRIRCRPPRLPRPRPRPNRGPRP | -0.00554
110 | RRIRCRPPRLPRPRPRPNRLPRP | -0.00311
111 | RRIRCRPPRLPRPRPRPNRMPRP | 2.23
112 | RRIRCRPPRLPRPRPRPNSTPRP | -0.76
113 | RRIRCRPPRLPRPRPRPNSWPRP | 0.0889
114 | RRIRCRPPRLPRPRPRPNTLPRP | -0.535
115 | RRIRCRPPRLPRPRPRPNTVPRP | -0.768
116 | RRIRCRPPRLPRPRPRPNVMPRP | -0.337
117 | RRIRCRPPRLPRPRPRPNYRPRP | -0.077
118 | RRIRCRPPRLPRPRPRPPAEPRP | 1.18
119 | RRIRCRPPRLPRPRPRPPAIPRP | 0.532
120 | RRIRCRPPRLPRPRPRPPDFPRP | -0.00542
121 | RRIRCRPPRLPRPRPRPPDRPRP | 0.394
122 | RRIRCRPPRLPRPRPRPPEFPRP | 0.0967
123 | RRIRCRPPRLPRPRPRPPEGPRP | 0.926
124 | RRIRCRPPRLPRPRPRPPFQPRP | 0.149
125 | RRIRCRPPRLPRPRPRPPGCPRP | 0.412

Row | Sequence | shrunken log2 fold change
126 | RRIRCRPPRLPRPRPRPPHDPRP | 1.83
127 | RRIRCRPPRLPRPRPRPPHLPRP | 0.079
128 | RRIRCRPPRLPRPRPRPPHSPRP | 0.395
129 | RRIRCRPPRLPRPRPRPPISPRP | -0.38
130 | RRIRCRPPRLPRPRPRPPKDPRP | 0.261
131 | RRIRCRPPRLPRPRPRPPKGPRP | 0.405
132 | RRIRCRPPRLPRPRPRPPKHPRP | 0.203
133 | RRIRCRPPRLPRPRPRPPLTPRP | 0.578
134 | RRIRCRPPRLPRPRPRPPLVPRP | 0.584
135 | RRIRCRPPRLPRPRPRPPMIPRP | -0.0902
136 | RRIRCRPPRLPRPRPRPPMVPRP | -0.147
137 | RRIRCRPPRLPRPRPRPPPWPRP | 1.06
138 | RRIRCRPPRLPRPRPRPPQHPRP | 0.49
139 | RRIRCRPPRLPRPRPRPPQPPRP | 0.858
140 | RRIRCRPPRLPRPRPRPPRMPRP | 0.671
141 | RRIRCRPPRLPRPRPRPPRWPRP | 1.16
142 | RRIRCRPPRLPRPRPRPPSNPRP | -0.416
143 | RRIRCRPPRLPRPRPRPPTLPRP | -0.0423
144 | RRIRCRPPRLPRPRPRPPTRPRP | 0.645
145 | RRIRCRPPRLPRPRPRPPVIPRP | -0.0627
146 | RRIRCRPPRLPRPRPRPPWRPRP | 0.751
147 | RRIRCRPPRLPRPRPRPPYRPRP | -0.0439
148 | RRIRCRPPRLPRPRPRPQACPRP | 0.00494
149 | RRIRCRPPRLPRPRPRPQAPPRP | 0.211
150 | RRIRCRPPRLPRPRPRPQAQPRP | 0.315
